Laboratory results published in paper PMC4769881 (Molecular cell, 2016).

Molecular target: the molecule itself
Experiment: AUC

B1: NBB182 (human MLKL N-terminal helix bundle and whole brace, to residue 182), tagless purified protein (domain or fragment, UniProt Q8NB16 1-182, looked up)
chain: MENLKHIITLGQVIHKRCEEMKYCKKQCRRLGHRVLGLIKPLEMLQDQGKRSVPSEKLTTAMNRFKAALEEANGEIEKFSNRSNICRFLTASQDKILFKDVNRKLSDVWKELSLLLQVEQRMPVSPISQGASWAQEDQQDADEDRRAFQMLRRDNEKIEASLRRLEINMKEIKETLRQYLPP
- stoichiometry N: 2
